Reference: patent US20160250313A1 (GlaxoSmithKline, published 2016)

Target: T1, Vitronectin from human plasma, SIGMA-ALDRICH (human, UniProt P04004 20-478)
T1 construct: mature
Experiment: ELISA, fusion protein coated at 10 ug/ml, vitronectin from 10 ug/ml in two-fold dilutions, detected with peroxidase sheep anti-human vitronectin

T1 sequence (P04004 20-478): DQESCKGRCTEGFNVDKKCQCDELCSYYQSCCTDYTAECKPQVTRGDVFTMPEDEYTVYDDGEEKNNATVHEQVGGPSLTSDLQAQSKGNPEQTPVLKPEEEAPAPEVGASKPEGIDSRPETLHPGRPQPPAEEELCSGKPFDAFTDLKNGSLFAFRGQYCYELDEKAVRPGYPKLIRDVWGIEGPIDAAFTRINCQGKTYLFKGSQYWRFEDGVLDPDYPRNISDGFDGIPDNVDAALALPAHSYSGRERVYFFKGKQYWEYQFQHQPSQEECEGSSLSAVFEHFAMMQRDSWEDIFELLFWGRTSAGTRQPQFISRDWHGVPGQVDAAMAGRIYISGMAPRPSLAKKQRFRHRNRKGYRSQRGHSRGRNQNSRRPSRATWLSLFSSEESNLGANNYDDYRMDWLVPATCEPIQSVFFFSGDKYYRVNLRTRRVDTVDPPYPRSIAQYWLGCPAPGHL

B1: purified LVL317 PE-PilA fusion protein (other)
chain: QIQKAEQNDVKLAPPTDVRSGYIRLVKNVNYYIDSESIWVDNQEPQIVHFDAVVNLDKGLYVYPEPKRYARSVRQYKILNCANYHLTQVRTDFYDEFWGQGLRAAPKKQKKHTLSLTPDTTLYNAAQIICANYGEAFSVDKKGGTKKAAVSELLQASAPYKADVELCVYSTNETTNCTGGKNGIAADITTAKGYVKSVTTSNGAITVKGDGTLANMEYILQATGNAATGVTWTTTCKGTDASLFPANFCGSVTQ
notes: Coated on microtiter plates at 10 ug/ml; also called PE-PilA fusion non His-tagged protein
B1: binds.
